Assay [1] concerns the target GHR constructs with one of seven amino acids of the UbE motif (indicated as underlined in …) mutated to alanine. In words: pull-down of 35S-labelled β-TrCP on GH-GHR beads, background (GHR 1-286) subtracted.
Another assay deals with GHR and β-TrCP. Description: Inhibition of the interaction between GHR and β-TrCP. Type of assay: binding.

For the molecule “in vitro-translated- and 35S-labelled-TrCP2”, the inhibition of binding as compared to wtGHR in assay [1] is greater than 60%.

B1: KQQRIKMLILPPVPVPKIKGIDPDLLKEGKLEEVNTILAIHDSYKPEFHSDDS WVEFIELD (peptide)
chain: KQQRIKMLILPPVPVPKIKGIDPDLLKEGKLEEVNTILAIHDSYKPEFHSDDSWVEFIELD
notes: 61 amino acid peptide of GHR, residues 270-331
In the case of B1, in the assay on GHR and β-TrCP, the “inhibition of F-box protein (β-TrCP) interaction with ubiquitin/proteasome binding site of GHR” value is given as “capable of providing inhibition”.
